Consider two compounds from publication PMC4702122, “Embelin binds to human neuroserpin and impairs its polymerisation” (Scientific Reports, 2016).

Assay [1] has as its target T1, 2ctPA (active form of recombinant tPA) (Homo sapiens, UniProt P00750).
T1 construct: gene PLAT
Description: tPA hydrolytic activity assay. Conditions: direct inhibition stated, data not shown; conditions not given. The format is biochemical.

The target of assay [2] is Neuroserpin (SERPINI1), wild type, uncleaved (human) (UniProt Q99574). Briefly: SEC; Nat (4 mg/ml) with 1.5 mM (saturated) EMB overnight at 4, 20, 37, 45, 55 °C; Superdex200 10/300 GL, 10 mM Tris HCl, 50 mM KCl, pH 8.0; fractions also by SDS-PAGE. For orientation: In gel filtration, larger molecules generally elute earlier.
Assay [3] shares this target. Briefly: SEC-MALS; Nat incubated with EMB; peaks eluted at 13.7 and 12.5 ml; SEC-HPLC, 200 μL at 4 mg/mL.
The target is the same in assay [4]. Description: native MS; nano-ESI-MS of the SEC peak at 12.5 ml of Nat incubated overnight at 20 °C with EMB; 100 mM ammonium acetate pH 8, 10-20 μM protein, declustering potential 300 V.

Several values for one entry are separate records, joined by “and”; a condition that tells them apart may be missing. Identical values can stand only once.

T1 sequence (P00750 36-562): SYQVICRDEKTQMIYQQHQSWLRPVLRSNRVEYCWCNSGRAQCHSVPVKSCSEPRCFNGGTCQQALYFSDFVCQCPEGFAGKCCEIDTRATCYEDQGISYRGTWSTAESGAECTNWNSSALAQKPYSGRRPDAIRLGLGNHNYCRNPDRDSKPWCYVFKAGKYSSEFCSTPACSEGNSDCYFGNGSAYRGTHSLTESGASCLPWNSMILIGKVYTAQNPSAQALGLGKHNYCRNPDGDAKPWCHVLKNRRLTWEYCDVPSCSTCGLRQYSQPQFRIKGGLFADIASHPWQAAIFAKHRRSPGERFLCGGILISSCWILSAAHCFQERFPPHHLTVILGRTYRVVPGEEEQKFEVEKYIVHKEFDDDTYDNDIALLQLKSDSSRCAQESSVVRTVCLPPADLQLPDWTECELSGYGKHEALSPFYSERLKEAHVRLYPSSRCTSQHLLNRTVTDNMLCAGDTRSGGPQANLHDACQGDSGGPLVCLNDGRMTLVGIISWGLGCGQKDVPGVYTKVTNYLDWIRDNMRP

On to `CCCCCCCCCCCC1=C(O)C(=O)C=C(O)C1=O` [EMB, embelin], for which the “tPA hydrolytic activity assay” value in assay [1] was “Due to direct inhibitory effect of EMB on tPA”.
For the compound “Neuroserpin (SERPINI1), wild type, uncleaved (from UniProt Q99574 17-410) (natural protein)”, the stoichiometry N in assay [2] is 2 to 8; in assay [3] it was 2; in assay [4], 3 and 4 and 2.

By stoichiometry N is commonly meant a count of units in the complex or per binding partner.
